What was measured:
[1] = activity for promoting ceramide intermembrane transfer (donating/receiving membrane, castor seed lectin); type: biochemical
From the text: Subsequently, as described in detail below, whether or not hCERT protein and recombinant protein promotes the transfer between ceramide lipid membrane was considered, the purified hCERT protein and its recombinant protein were used in this assay were used. The present method was constructed on the basis of the principle of method of measuring the activity for promoting the intermembrane transfer of phosphatidylinositol by phosphatidylinositol transfer protein already reported by Kasper et al (Biochim. Biophys. Acta 664, 22-32, 1981) so that it becomes a new method of measuring the activity for promoting the ceramide intermembrane transfer. For the purpose of measuring the activity for promoting the intermembrane transfer, a donating membrane in which radioactive ceramide has been contained and a receiving membrane not containing ceramide were prepared. For the purpose of separating the lipid membrane, lactocylceramide was contained in the donating membrane. After the donating membrane and receiving membrane have been incubated with the protein sample to be targeted, castor seed lectin was added. Ceramide intermembrane-transferred can be quantified by measuring the radioactive activity of receptor membrane which has not been precipitated by a low speed centrifugation. […]

LY-A2 cell = experiment: content of phospholipids of cell; type: cell-based, Chinese hamster; conditions: LY-A2/hCERT cell, FIG. 3(B)
Description: 3×10^6 cells per culture dish having the 150-mm diameter of CHO-K1 cell, LY-A2 cell, or LY-A2/hCERT cell was inoculated in 20 mL of F12/NBS medium, and cultured at 33° C. overnight. After it was washed twice in 10 mL of serum-free F12 medium, it was further cultured for 2 days in 20 mL of Nutridoma BO medium. After it was washed in PBS, the cells were collected by a method of scaping, suspended again in PBS, and lipid was extracted by a method described in Bligh et al (Can. J. Biochem. Physiol. 37, 911-917, 1959). The extracted lipid was separated using TLC whose development solvents were chloroform/methanol/acetic acid/H2O (volume ratio, 25:15:4:2). After the separated phospholipid on the TLC plate was colored by iodine vapor, the band of the respective separated phospholipid was scraped out from the plate. The scraped separated phospholipid was quantified by measuring phosphorus content by a method of Rouser et al (Lipids 1, 85-86, 1966).

B1: hCERT protein: human CERT protein having an amino acid sequence of SEQ ID NO:1 (protein)
chain: MSDNQSWNSSGSEEDPETESGPPVERCGVLSKWTNYIHGWQDRWVVLKNNALSYYKSEDETEYGCRGSICLSKAVITPHDFDECRFDISVNDSVWYLRAQDPDHRQQWIDAIEQHKTESGYGSESSLRRHGSMVSLVSGASGYSATSTSSFKKGHSLREKLAEMETFRDILCRQVDTLQKYFDACADAVSKDELQRDKVVEDDEDDFPTTRSDGDFLHSTNGNKEKLFPHVTPKGINGIDFKGEAITFKATTAGILATLSHCIELMVKREDSWQKRLDKETEKKRRTEEAYKNAMTELKKKSHFGGPDYEEGPNSLINEEEFFDAVEAALDRQDKIEEQSQSEKVRLHWPTSLPSGDAFSSVGTHRFVQKVEEMVQNHMTYSLQDVGGDANWQLVVEEGEMKVYRREVEENGIVLDPLKATHAVKGVTGHEVCNYFWNVDVRNDWETTIENFHVVETLADNAIIIYQTHKRVWPASQRDVLYLSVIRKIPALTENDPETWIVCNFSVDHDSAPLNNRCVRAKINVAMICQTLVSPPEGNQEISRDNILCKITYVANVNPGGWAPASVLRAVAKREYPKFLKRFTSYVQEKTAGKPILF
modifications: HeLa cell
activity for promoting ceramide intermembrane transfer ([1]; 37° C., 14C of supernatant and donating membrane, FIGS. 17, 18): detected depending on the amount of hCERT, the length of incubation time and incubation temperature
ceramide transferred to the receiving membrane vesicle ([1]; for 10 minutes): ~50%
SM content (LY-A2 cell): recovered to the wild type level

Source: patent US20080085859A1, “Drug Promoting Ceramide Transport, Base Sequence for Producing the Drug, Method of Measuring Activity of Promoting Ceramide Release and Method of Measuring Activity of Promoting Intermembrane Ceramide Transfer” (JAPAN SCIENCE AND TECHNOLOGY AGENCY, priority 2003, published 2008)
